What was measured:
Test in all cases: holdup assay
Parameters in all cases: key: below the threshold = too weak to quantify, mostly under pKd 3.1 to 4
[1] = molecular target: AHNAK1, Q09666
[2] = molecular target: T1, APBA2_1, Q99767
T1 sequence (Q99767 563-664, limits assumed, looked up): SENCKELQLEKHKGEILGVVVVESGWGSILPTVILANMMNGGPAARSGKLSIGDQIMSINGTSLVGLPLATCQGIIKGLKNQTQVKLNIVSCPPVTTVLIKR

[3] = molecular target: T2, DFNB31_1, Q9P202
T2 sequence (Q9P202 135-233, limits assumed, looked up): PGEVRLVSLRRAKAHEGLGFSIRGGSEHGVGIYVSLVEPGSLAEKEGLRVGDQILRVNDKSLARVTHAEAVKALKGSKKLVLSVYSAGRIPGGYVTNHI

[4] = molecular target: DLG1_1, Q12959
[5] = molecular target: DLG1_2, Q12959
[6] = molecular target: DLG2_3, Q15700
[7] = molecular target: T3, DLG3_2, Q92796
T3 sequence (Q92796 221-321, limits assumed, looked up): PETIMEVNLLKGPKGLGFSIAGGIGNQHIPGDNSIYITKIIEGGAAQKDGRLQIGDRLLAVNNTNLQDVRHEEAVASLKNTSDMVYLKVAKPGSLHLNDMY

[8] = molecular target: GORASP1, Q9BQQ3
[9] = molecular target: T4, GRIP1_3, Q9Y3R0
T4 sequence (Q9Y3R0 247-346, limits assumed, looked up): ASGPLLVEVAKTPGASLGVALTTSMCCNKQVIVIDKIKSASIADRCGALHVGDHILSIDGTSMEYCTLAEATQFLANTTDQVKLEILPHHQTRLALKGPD

[10] = molecular target: T5, GRIP1_4, Q9Y3R0
T5 sequence (Q9Y3R0 467-571, limits assumed, looked up): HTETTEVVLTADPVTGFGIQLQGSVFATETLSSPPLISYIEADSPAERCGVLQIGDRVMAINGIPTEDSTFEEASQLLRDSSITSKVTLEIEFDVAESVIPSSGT

[11] = molecular target: T6, GRIP1_7, Q9Y3R0
T6 sequence (Q9Y3R0 999-1096, limits assumed, looked up): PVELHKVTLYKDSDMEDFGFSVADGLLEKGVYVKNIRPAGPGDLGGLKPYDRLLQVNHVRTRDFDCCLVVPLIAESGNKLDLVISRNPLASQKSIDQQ

[12] = molecular target: T7, HTRA3, P83110
T7 sequence (P83110 354-453, limits assumed, looked up): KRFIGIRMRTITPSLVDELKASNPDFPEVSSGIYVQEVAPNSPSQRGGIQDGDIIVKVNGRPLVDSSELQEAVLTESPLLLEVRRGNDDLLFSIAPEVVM

[13] = molecular target: Inadl_1, Q8NI35
[14] = molecular target: Inadl_10, Q8NI35
[15] = molecular target: Inadl_5, Q8NI35
[16] = molecular target: Inadl_9, Q8NI35
[17] = molecular target: T8, LIN7B, Q9HAP6
T8 sequence (Q9HAP6 88-185, limits assumed, looked up): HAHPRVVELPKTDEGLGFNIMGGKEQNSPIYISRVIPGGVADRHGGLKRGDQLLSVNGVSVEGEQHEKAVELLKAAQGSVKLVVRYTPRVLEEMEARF

[18] = molecular target: LNX1_3, Q8TBB1
[19] = molecular target: T9, MPP7, Q5T2T1
T9 sequence (Q5T2T1 134-230, limits assumed, looked up): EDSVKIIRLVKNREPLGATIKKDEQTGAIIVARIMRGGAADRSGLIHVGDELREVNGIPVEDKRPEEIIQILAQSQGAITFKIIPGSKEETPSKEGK

[20] = molecular target: NHERF4_1, Q86UT5-2
[21] = molecular target: T10, PCLO, Q9Y6V0
T10 sequence (Q9Y6V0 4491-4600, limits assumed, looked up): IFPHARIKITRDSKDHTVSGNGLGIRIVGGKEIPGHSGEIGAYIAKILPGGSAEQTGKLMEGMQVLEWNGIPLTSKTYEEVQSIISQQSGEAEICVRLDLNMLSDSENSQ

[22] = molecular target: T11, PDZD2_2, O15018
T11 sequence (O15018 329-429, limits assumed, looked up): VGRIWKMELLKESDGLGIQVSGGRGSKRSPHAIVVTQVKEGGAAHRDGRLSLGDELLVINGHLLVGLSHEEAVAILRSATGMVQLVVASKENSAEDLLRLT

[23] = molecular target: PDZRN4_1, Q6ZMN7
[24] = molecular target: PICK1, Q9NRD5
[25] = molecular target: SCRIB_3, Q14160
[26] = molecular target: T12, SNTB1, Q13884
T12 sequence (Q13884 107-205, limits assumed, looked up): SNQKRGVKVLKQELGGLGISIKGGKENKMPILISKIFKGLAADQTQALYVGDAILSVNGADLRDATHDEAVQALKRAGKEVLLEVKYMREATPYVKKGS

[27] = plain residues with an end cap or a label only (N-terminal biotin on a linker: ttds)
[28] = plain residues with an end cap or a label only (N-terminal biotin on a linker: gsgsgs; C-terminal amide)

Sequence of SCRIB_3, Q14160 (Q14160 999-1103): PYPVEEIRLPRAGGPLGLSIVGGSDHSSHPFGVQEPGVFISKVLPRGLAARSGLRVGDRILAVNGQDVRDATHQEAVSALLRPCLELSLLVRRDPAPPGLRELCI
Sequence of NHERF4_1, Q86UT5-2 (Q86UT5 other isoform, or with tags, fused parts or gaps): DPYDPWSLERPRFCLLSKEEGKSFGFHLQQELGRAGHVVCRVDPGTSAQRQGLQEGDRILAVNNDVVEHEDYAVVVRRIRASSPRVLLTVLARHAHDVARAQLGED
Sequence of Inadl_5, Q8NI35 (Q8NI35 673-780): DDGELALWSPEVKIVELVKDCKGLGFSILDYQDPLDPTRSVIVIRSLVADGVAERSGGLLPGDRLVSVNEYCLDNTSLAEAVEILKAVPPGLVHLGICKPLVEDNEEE
Sequence of AHNAK1, Q09666 (Q09666 4-100): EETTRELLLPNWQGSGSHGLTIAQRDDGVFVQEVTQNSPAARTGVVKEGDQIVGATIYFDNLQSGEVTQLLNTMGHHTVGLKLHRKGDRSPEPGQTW
Sequence of Inadl_9, Q8NI35 (Q8NI35 1530-1615): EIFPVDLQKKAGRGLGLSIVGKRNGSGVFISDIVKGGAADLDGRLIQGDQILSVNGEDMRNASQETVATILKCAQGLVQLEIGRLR
Sequence of Inadl_10, Q8NI35 (Q8NI35 1673-1763): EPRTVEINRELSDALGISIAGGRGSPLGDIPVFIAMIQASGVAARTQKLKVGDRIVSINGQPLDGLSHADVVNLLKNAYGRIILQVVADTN
Sequence of LNX1_3, Q8TBB1 (Q8TBB1 500-596): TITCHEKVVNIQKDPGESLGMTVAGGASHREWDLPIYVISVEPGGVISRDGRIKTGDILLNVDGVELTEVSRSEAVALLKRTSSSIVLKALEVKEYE
Sequence of GORASP1, Q9BQQ3 (Q9BQQ3 1-208): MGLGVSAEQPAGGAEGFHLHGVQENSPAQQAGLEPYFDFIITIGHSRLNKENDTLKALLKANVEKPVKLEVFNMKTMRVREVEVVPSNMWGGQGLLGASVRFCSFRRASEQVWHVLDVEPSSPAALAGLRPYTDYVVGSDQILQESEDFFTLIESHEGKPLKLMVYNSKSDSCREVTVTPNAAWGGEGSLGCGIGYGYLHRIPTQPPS
Sequence of PDZRN4_1, Q6ZMN7 (Q6ZMN7 213-318): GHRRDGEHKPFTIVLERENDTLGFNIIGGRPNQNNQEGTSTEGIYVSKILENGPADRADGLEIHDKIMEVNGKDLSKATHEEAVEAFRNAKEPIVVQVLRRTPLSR
Sequence of Inadl_1, Q8NI35 (Q8NI35 113-229): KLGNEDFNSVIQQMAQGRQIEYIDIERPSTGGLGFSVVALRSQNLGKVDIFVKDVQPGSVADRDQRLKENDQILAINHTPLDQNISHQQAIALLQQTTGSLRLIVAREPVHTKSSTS
Sequence of PICK1, Q9NRD5 (Q9NRD5 17-115): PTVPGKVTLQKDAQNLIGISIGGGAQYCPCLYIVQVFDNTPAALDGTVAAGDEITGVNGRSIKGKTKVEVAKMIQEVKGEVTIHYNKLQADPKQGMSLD

In the case of FHPLGADSQV [SLC2A1, P11166], the pKd [1, 27] is reported as “below the threshold”, the pKd [2, 27] is reported as “below the threshold” and the pKd [3, 27] is reported as “below the threshold”. For the same binder, the pKd [4, 27] was “below the threshold”, the pKd [5, 27] was 3.88 and the pKd [6, 27] was “below the threshold”. For the same binder, the pKd [7, 27] was 4.03, the pKd [8, 27] was “below the threshold” and the pKd [9, 27] was “below the threshold”. For the same binder, the pKd [10, 27] was “below the threshold”, the pKd [11, 27] was 3.55 and the pKd [12, 27] was “below the threshold”. For the same binder, the pKd [13, 27] was 3.49, the pKd [14, 27] was “below the threshold” and the pKd [15, 27] was “below the threshold”. For the same binder, the pKd [16, 27] was “below the threshold”, the pKd [17, 27] was “below the threshold” and the pKd [18, 27] was “below the threshold”. For the same binder, the pKd [19, 27] was “below the threshold”, the pKd [20, 27] was “below the threshold” and the pKd [21, 27] was “below the threshold”. For the same binder, the pKd [22, 27] was 4.22, the pKd [23, 27] was “below the threshold” and the pKd [24, 27] was “below the threshold”. For the same binder, the pKd [25, 27] was 3.58 and the pKd [26, 27] was 3.64.

With PVRVCEETSL [OTULIN, Q96BN8] the pKd [1, 27] was “below the threshold”, the pKd [2, 27] was “below the threshold” and the pKd [3, 27] was 4.42. It also gave a pKd [4, 27] of 4.35, a pKd [5, 27] of 4.56 and a pKd [6, 27] of 3.95. The pKd [7, 27] was 4.35, the pKd [8, 27] was 3.64 and the pKd [9, 27] was “below the threshold”. For the same binder, the pKd [10, 27] was “below the threshold”, the pKd [11, 27] was 3.75 and the pKd [12, 27] was “below the threshold”. It also gave a pKd [13, 27] of 3.7, a pKd [14, 27] of 3.55 and a pKd [15, 27] of 3.54. The pKd [16, 27] was “below the threshold”, the pKd [17, 27] was 3.85 and the pKd [18, 27] was “below the threshold”. For the same binder, the pKd [19, 27] was “below the threshold”, the pKd [20, 27] was 4.02 and the pKd [21, 27] was “below the threshold”. For the same binder, the pKd [22, 27] was 3.54, the pKd [23, 27] was 5.23 and the pKd [24, 27] was “below the threshold”. The pKd [25, 27] was 5.64 and the pKd [26, 27] was 4.61.

In the case of VDFPPKESSL [ACVR2A, P27037], the pKd [1, 27] is reported as “below the threshold”, the pKd [2, 27] is reported as “below the threshold” and the pKd [3, 27] is reported as “below the threshold”. The pKd [4, 27] was 3.71, the pKd [5, 27] was 4.24 and the pKd [6, 27] was 3.75. The pKd [7, 27] was “below the threshold”, the pKd [8, 27] was “below the threshold” and the pKd [9, 27] was “below the threshold”. The pKd [10, 27] was “below the threshold”, the pKd [11, 27] was 3.47 and the pKd [12, 27] was “below the threshold”. For the same binder, the pKd [13, 27] was “below the threshold”, the pKd [14, 27] was “below the threshold” and the pKd [15, 27] was “below the threshold”. For the same binder, the pKd [16, 27] was “below the threshold”, the pKd [17, 27] was 3.54 and the pKd [18, 27] was “below the threshold”. For the same binder, the pKd [19, 27] was “below the threshold”, the pKd [20, 27] was 3.35 and the pKd [21, 27] was “below the threshold”. The pKd [22, 27] was 3.63, the pKd [23, 27] was 4.7 and the pKd [24, 27] was “below the threshold”. The pKd [25, 27] was 4.88 and the pKd [26, 27] was 4.41.

In the case of YGIVQETTFDLGGDIH [MLLT4_int, P55196], the pKd [1, 28] is reported as “below the threshold”, the pKd [2, 28] is reported as “below the threshold” and the pKd [3, 28] is reported as “below the threshold”. For the same binder, the pKd [4, 28] was “below the threshold”, the pKd [5, 28] was 4.06 and the pKd [6, 28] was 3.77. For the same binder, the pKd [7, 28] was 4.21, the pKd [8, 28] was “below the threshold” and the pKd [9, 28] was “below the threshold”. For the same binder, the pKd [10, 28] was “below the threshold”, the pKd [11, 28] was “below the threshold” and the pKd [12, 28] was “below the threshold”. For the same binder, the pKd [13, 28] was “below the threshold”, the pKd [14, 28] was “below the threshold” and the pKd [15, 28] was “below the threshold”. For the same binder, the pKd [16, 28] was “below the threshold”, the pKd [17, 28] was 3.58 and the pKd [18, 28] was “below the threshold”. The pKd [19, 28] was “below the threshold”, the pKd [20, 28] was “below the threshold” and the pKd [21, 28] was “below the threshold”. For the same binder, the pKd [22, 28] was “below the threshold”, the pKd [23, 28] was “below the threshold” and the pKd [24, 28] was “below the threshold”. It also gave a pKd [25, 28] of 4.61 and a pKd [26, 28] of 3.53.

For SGSRPSATVV [HPV73-E6, Q82005], the pKd [1, 27] was “below the threshold”, the pKd [2, 27] was “below the threshold” and the pKd [3, 27] was “below the threshold”. The pKd [4, 27] was 3.89, the pKd [5, 27] was 4.3 and the pKd [6, 27] was 3.61. The pKd [7, 27] was 4.11, the pKd [8, 27] was 4.19 and the pKd [9, 27] was “below the threshold”. For the same binder, the pKd [10, 27] was “below the threshold”, the pKd [11, 27] was 3.83 and the pKd [12, 27] was 3.7. The pKd [13, 27] was “below the threshold”, the pKd [14, 27] was “below the threshold” and the pKd [15, 27] was “below the threshold”. For the same binder, the pKd [16, 27] was 3.59, the pKd [17, 27] was “below the threshold” and the pKd [18, 27] was “below the threshold”. The pKd [19, 27] was “below the threshold”, the pKd [20, 27] was “below the threshold” and the pKd [21, 27] was “below the threshold”. For the same binder, the pKd [22, 27] was 4.11, the pKd [23, 27] was “below the threshold” and the pKd [24, 27] was 3.63. The pKd [25, 27] was “below the threshold” and the pKd [26, 27] was “below the threshold”.

From PMC9482650, “Quantitative fragmentomics allow affinity mapping of interactomes” (Nature Communications, 2022)
